# Assay results taken from publication doi:10.1101/851261.
# pIC50: −log10 of the molar value.
# Experiments:
# [1] = target: AjKissR2 (Apostichopus japonicus); experiment: flow cytometry on cells
# [2] = target: AjKissR1 (Apostichopus japonicus); experiment: flow cytometry on cells
pIC50 [1],pIC50 [2],Substance
7.02,,AjKiss1a (peptide)
,6.45,AjKiss1b (peptide)
